Measured values from patent publication US20150104459A1 (published 2015).

Assays:
[1] = molecular target: hemagglutinin (HA) of live influenza A/Solomon Islands/3/06 (H1N1) virus (influenza A virus A/Solomon …); assay: cell-based or functional assay
[2] = molecular target: hemagglutinin (HA) of live influenza A/Wisconsin/67/05 (H3N2) virus (influenza A virus A/Wisconsin/67/2005 …); assay: cell-based or functional assay
[3] = molecular target: recombinant soluble homotrimeric HA, A/Anhui/1/05 (H5N1) (influenza A virus A/Anhui/1/2005 (H5N1)); assay: microarray, trimeric HA, transfection supernatant
[4] = molecular target: recombinant soluble homotrimeric HA, A/chicken/Vietnam/NCVD-016/08 (H5N1) (influenza A virus …); assay: microarray, trimeric HA, transfection supernatant
[5] = molecular target: recombinant soluble homotrimeric HA, A/Hong Kong/156/97 (H5N1) (influenza A virus A/Hong Kong/156/97 …); assay: microarray, trimeric HA, transfection supernatant
[6] = molecular target: recombinant soluble homotrimeric HA, A/northern shoveler/California/HKWF115/2007 (H6N1) (influenza A virus A/northern …); assay: microarray, trimeric HA, transfection supernatant
[7] = molecular target: recombinant soluble homotrimeric HA, A/Netherlands/219/03 (H7N7) (influenza A virus A/Netherlands/219/03 …); assay: microarray, trimeric HA, transfection supernatant
[8] = molecular target: recombinant soluble homotrimeric HA, A/duck/Yangzhou/02/2005 (H8N4) (influenza A virus …); assay: microarray, trimeric HA, transfection supernatant
[9] = molecular target: recombinant soluble homotrimeric HA of A/northern shoveler/California/HKWF115/2007 (H6N1) (Influenza A virus A/northern …); assay: HA microarray, BCC supernatant
[10] = molecular target: recombinant soluble homotrimeric HA of A/duck/Yangzhou/02/2005 (H8N4) (Influenza A virus …); assay: HA microarray, BCC supernatant
[11] = molecular target: hemagglutinin (HA) of live influenza A/California/4/09 (H1N1) virus (influenza A virus A/California/04/2009 …); assay: cell-based or functional assay

B1: TCN-558 (5248_H10b) (antibody, V domains shown)
VH: QVQLVQSGSEVKKPGTSVKVSCTASGSVFTNYGISWVRQAPGQGLEWMGGIIPLFGAAKYAQKFQGRVTITADESTKTVYMELSRLTSKDTAIYFCAKAPRVYEYYFDQWGQGTPVTVSS
VL: EIVMTQFPATLSVSPGERVTLSCRASQSVSNNLAWYQQKPGQPPRLLIYDASTRATGVPAKFSGTGSGTEFTLSISSLQSEDFAVYYCQQYHNWPPSYSFGLGTKLEIK
[1]
  % Neutralization: 84%
[2]
  % Neutralization: 7%

B2: TCN-556 (5089_K12) (antibody, V domains shown)
VH: QVQLVQSGAEVKKPGASVKVSCKASGYTFIGYDMHWVRQAPGQGLEWMGWINAKRGGTNYAQKFQGRVTMTRDTSISTAYMELNSLRSDDTAVYYCARGVGSRTTIFGVLNPEFDYWGQGTLVTVSS
VL: QSALTQPPSASGSPGQSVTISCTGSSSDVGGYDYVSWYQQHPGKAPKLLIYEVTKRPSGVPDRFSGSKSGNTASLTVSGLQAEDEADYYCSSYAGNYNHVFGPGTKVTVL
[3]
  Trimeric HA Binding RLU: 13800 RLU
[4]
  Trimeric HA Binding RLU: 22700 RLU
[5]
  Trimeric HA Binding RLU: 24600 RLU
[6]
  Trimeric HA Binding RLU: 34800 RLU
[7]
  Trimeric HA Binding RLU: 43600 RLU
[8]
  Trimeric HA Binding RLU: 22400 RLU

B3: TCN-556 (5089_K12) (antibody, V domains shown)
VH: QVQLVQSGAEVKKPGASVKVSCKASGYTFIGYDMHWVRQAPGQGLEWMGWINAKRGGTNYAQKFQGRVTMTRDTSISTAYMELNSLRSDDTAVYYCARGVGSRTTIFGVLNPEFDYWGQGTLVTVSS
VL: QSALTQPPSASGSPGQSVTISCTGSSSDVGGYDYVSWYQQHPGKAPKLLIYEVTKRPSGVPDRFSGSKSGNTASLTVSGLQAEDEADYYCSSYAGNYNHVFGPGTKVTVL
[9]
  Trimeric HA Binding RLU: 11900 RLU
[10]
  Trimeric HA Binding RLU: 16900 RLU

B4: TCN-555 (5246_L16) (antibody, V domains shown)
VH: QVQLVQSGAEVKRPGSSVKVSCTASGGIFRKNAISWVRQAPGQGLEWMGGIIAVFNTANYAQKFQNRVKITADESGNTAYMELSSLTSDDTAVYYCASHPKYFYGSGSYPDFWGQGTLVTVSS
VL: QSALTQPRSVSGSPGQSITISCTGGSSDIGASNSVSWYQQHPGKAPKLVIFDVTERPSGVPHRFSGSKSGNTASLTVSGLQPDDEADYFCCAYGGKYLVVFGGGTKVTVL
[1]
  % Neutralization: 49%
[2]
  % Neutralization: 5%

B5: TCN-552 (5249_I23) (antibody, V domains shown)
VH: QVQVVQSGAEVKKPGSSVRVSCQASGGTFMNYAIIWVRRAPGQGLEWMGGIIPVFPTPNYAQMFQGRVTISTDESRSTSFLELTNLRYEDTAVYYCARRIYHGGNSGFDFWGQGTLVTVSS
VL: EIVLTQSPATLSLSPGERATLSCRASQSVGNYLAWYQQKPGQAPRLLIYDSSNRAPGIPARFSGSGSGTDFTLTISSLAPEDFAVYYCQQRSKWPPMYSFGHGTKLEIK
[1]
  % Neutralization: 0%
[2]
  % Neutralization: 14%

B6: TCN-560 (5084_P10) (antibody, V domains shown)
VH: EVQLVESGGGLVQPGGSLRLSCAASGFIFRNYWMSWVRQAPGKGLEWVANIKQDGREKYYVDSLRGRVNISRDNAENSLYLHMNSLRVEDTAVYFCARARMVVVTGDGFDVWGHGTMVTVSS
VL: DIQMTQSPSSLSASVGDRVTITCRASQNIKRYFNWYQQKPGKAPKLLIYAASNLENGVPSRFSGSGSGTDFTLTISSLQPEDFATYYCQQSFSKSWTFGQGTNVDIK
[3]
  Trimeric HA Binding RLU: 18600 RLU
[4]
  Trimeric HA Binding RLU: 18200 RLU
[5]
  Trimeric HA Binding RLU: 29300 RLU
[6]
  Trimeric HA Binding RLU: 35900 RLU
[7]
  Trimeric HA Binding RLU: 32100 RLU
[8]
  Trimeric HA Binding RLU: 27900 RLU

B7: TCN-560 (5084_P10) (antibody, V domains shown)
VH: EVQLVESGGGLVQPGGSLRLSCAASGFIFRNYWMSWVRQAPGKGLEWVANIKQDGREKYYVDSLRGRVNISRDNAENSLYLHMNSLRVEDTAVYFCARARMVVVTGDGFDVWGHGTMVTVSS
VL: DIQMTQSPSSLSASVGDRVTITCRASQNIKRYFNWYQQKPGKAPKLLIYAASNLENGVPSRFSGSGSGTDFTLTISSLQPEDFATYYCQQSFSKSWTFGQGTNVDIK
[9]
  Trimeric HA Binding RLU: 42300 RLU
[10]
  Trimeric HA Binding RLU: 44700 RLU

B8: TCN-551 (5243_D01) (antibody, V domains shown)
VH: EVQLVQSGSEVKKPGESLKISCKGSGYSFSNYWIGWVRHMPGKGLEWMGIIYPGDSDTRYSPSFQGQVTMSADKSSSTVYLQWSSLKASDTAIYYCARRGGHSFGYGSGGDTHSEFDSWGQGTLVTVSS
VL: QSVLTQSPSVSAAPGQKVTISCSGSDSNIGDYFVCWYQHLPGKPPQLLIYENNKRPSGIPDRFSGSKSGTSATLGITGIQTGDEADYYCATWDGSLSAWVFGGGTKLTVL
[1]
  % Neutralization: 99%
[2]
  % Neutralization: 6%

B9: TCN-546 (5089_L08) (antibody, V domains shown)
VH: QVQLQQWGAGLLKPSETLSLTCGVYGGSLSDYYWSWIRQPPGKGLEWIGEINHSGGTNYNPSLKRRVTISVDTSKKQFSLKMNSVTAADTAVYYCARGTDPDTEVYCRAGNCAAFDFWGQGTLVTVSS
VL: EIVLTQSPGTLSLSPGERATLSCRASHFVIGRAVAWYQQKPGQAPRLLIYGASSRATGIPDRFSGSGSGTDFTLTISRLETEDFAVFYCQHYGSSPRYAFGQGTKLEIK
[1]
  % Neutralization: 98%
[11]
  % Neutralization: 0%
[2]
  % Neutralization: 100%

B10: TCN-542 (5079_A16) (antibody, V domains shown)
VH: QVQLQESGPGLVKPSQTLSLTCTVSGGSISSGNYYWNWVRQHPGKGLEWIGYIYYRGSTFYNPSLKSRVTISIDTSKNQFSLRLSSVTAADTAVYYCAKDTRSSLDNYQYGMDVWGQGTTVTVSS
VL: QTVVTQEPSLTVSPGGTVTLTCASSTGAVTSSYFPNWFQQKPGQAPRPLIYSTTIRHSWTPARFSGSLLGGKAALTLSGVQPEDEADYYCLLYSGGDPVAFGGGTKLTVL
[1]
  % Neutralization: 99%
[11]
  % Neutralization: 15%
[2]
  % Neutralization: 8%

B11: TCN-553 (5261_C18) (antibody, V domains shown)
VH: QVQVVQSGTEVKKPGSSVKVSCQTSGGRFMSYAITWVRQAPGQGLEWMGGIVPVFGTANYAQKFQGRVTITTDDSTRTAYMELSSLRSEDTAVYYCGFRYGSGYGFDSWGQGTLVTVSS
VL: EIVLTQSPGTLSLSPGERATLSCRASQSVSSSYLAWYQKKPGQAPRLLIYGASTRATGIPDRFTGSGSGTDFTLSISRLEPEDFAVYYCQHFGTSVFTFGGGTKVEIK
[1]
  % Neutralization: 44%
[2]
  % Neutralization: 5%
